We go through one molecule from patent publication US20140005241 (The Curators of the University of Missouri, published 2014).

This data set deals with SARS-CoV nsp13 helicase (SARS coronavirus, UniProt P0C6X7 P0C6X7:5302-5902). Briefly: EMSA. The note with it: tags: GST (baculovirus) or His6; label: 5'-Cy3; 20 nt 5' overhang, 40 bp duplex.

B1: 60/40-mer (20ss:40ds) DNA (dsDNA)
DNA 1: TAGATAGCATTAGATAGCCACAGATAGCATCCTAGATAGCATTGGTGCTCGAACAGTGAC
DNA 2: GTCACTGTTCGAGCACCAATGCTATCTAGGATGCTATCTG
Regarding B1, the binding result is reported as “binds”.
